Experimental data: paper PMC2686680, “Chibby forms a homodimer through a heptad repeat of leucine residues in its C-terminal coiled-coil motif” (BMC Molecular Biology, 2009)

B1: Cby wild type fused to the N-terminal (RN) or C-terminal (RC) portion of synthetic Renilla luciferase (hRluc) [human] / itself (parent complex)
chain: MPFFGNTFSPKKTPPRKSASLSNLHSLDRSTREVELGLEYGSPTMNLAGQSLKFENGQWIAETGVSGGVDRREVQRLRRRNQQLEEENNLLRLKVDILLDMLSESTAESHLMEKELDELRISRKRK

Variants of: B1
Experiment: split hRluc protein-fragment-assisted complementation assay; HEK293T cells; expression plasmids 400 ng each; triplicate, means ± SD; read off a plot

response | Variant
~0.7 | MPFFGNTFSPKKTPPRKSASLSNLHSLDRSTREVELGLEYGSPTMNLAGQSLKFENGQWIAETGVSGGVDRREVQRLRRRNQQLEEENNLARLKVDIALDMLSESTAESHLMEKELDELRISRKRK [chain 1 L91A, chain 1 L98A]
~0.28 | MPFFGNTFSPKKTPPRKSASLSNLHSLDRSTREVELGLEYGSPTMNLAGQSLKFENGQWIAETGVSGGVDRREVQRLRRRNQQAEEENNLLRLKVDIALDMLSESTAESHLMEKELDELRISRKRK [chain 1 L84A, chain 1 L98A]
~4 | MPFFGNTFSPKKTPPRKSASLSNLHSLDRSTREVELGLEYGSPTMNLAGQSLKFENGQWIAETGVSGGVDRREVQRLRRRNQQLEEENNLARLKVDILLDMLSESTAESHLMEKELDELRISRKRK [chain 1 L91A]
~5.4 | MPFFGNTFSPKKTPPRKSASLSNLHSLDRSTREVELGLEYGSPTMNLAGQSLKFENGQWIAETGVSGGVDRREVQRLRRRNQQLEEENNLLRLKVDIALDMLSESTAESHLMEKELDELRISRKRK [chain 1 L98A]

Continued, variant first:

Variant | response
MPFFGNTFSPKKTPPRKSASLSNLHSLDRSTREVELGLEYGSPTMNLAGQSLKFENGQWIAETGVSGGVDRREVQRLRRRNQQAEEENNLLRLKVDILLDMLSESTAESHLMEKELDELRISRKRK [chain 1 L84A] | ~1.9
MPFFGNTFSPKKTPPRKSASLSNLHSLDRSTREVELGLEYGSPTMNLAGQSLKFENGQWIAETGVSGGVDRREVQRARRRNQQLEEENNLARLKVDILLDMLSESTAESHLMEKELDELRISRKRK [chain 1 L77A, chain 1 L91A] | ~0.55
MPFFGNTFSPKKTPPRKSASLSNLHSLDRSTREVELGLEYGSPTMNLAGQSLKFENGQWIAETGVSGGVDRREVQRARRRNQQAEEENNLLRLKVDILLDMLSESTAESHLMEKELDELRISRKRK [chain 1 L77A, chain 1 L84A] | ~0.18
MPFFGNTFSPKKTPPRKSASLSNLHSLDRSTREVELGLEYGSPTMNLAGQSLKFENGQWIAETGVSGGVDRREVQRARRRNQQLEEENNLLRLKVDILLDMLSESTAESHLMEKELDELRISRKRK [chain 1 L77A] | ~3.2
MPFFGNTFSPKKTPPRKSASLSNLHSLDRSTREVELGLEYGSPTMNLAGQSLKFENGQWIAETGVSGGVDRREVQRARRRNQQAEEENNLARLKVDIALDMLSESTAESHLMEKELDELRISRKRK [chain 1 L77A, chain 1 L84A, chain 1 L91A, chain 1 L98A] | ~0.5
